# Where “and” joins values, the source holds several entries; their conditions need not be identical. Equal values may be shown once.
# Experiments:
# [1] = target: Rap55, T^2-ELISA construct, cell-free expressed from PCR product with N-terminal VSV-G and C-terminal HSV epitope tags (UniProt Q8ND56)
# [2] = target: Rap55, T^2-ELISA construct, cell-free expressed from PCR product with N-terminal VSV-G and C-terminal HSV epitope tags (UniProt Q8ND56); test: dual-reporter T^2-ELISA, against the single-reporter HRP control
# UniProt Q8ND56, sequence (Q8ND56 1-463, tags or fused parts left off): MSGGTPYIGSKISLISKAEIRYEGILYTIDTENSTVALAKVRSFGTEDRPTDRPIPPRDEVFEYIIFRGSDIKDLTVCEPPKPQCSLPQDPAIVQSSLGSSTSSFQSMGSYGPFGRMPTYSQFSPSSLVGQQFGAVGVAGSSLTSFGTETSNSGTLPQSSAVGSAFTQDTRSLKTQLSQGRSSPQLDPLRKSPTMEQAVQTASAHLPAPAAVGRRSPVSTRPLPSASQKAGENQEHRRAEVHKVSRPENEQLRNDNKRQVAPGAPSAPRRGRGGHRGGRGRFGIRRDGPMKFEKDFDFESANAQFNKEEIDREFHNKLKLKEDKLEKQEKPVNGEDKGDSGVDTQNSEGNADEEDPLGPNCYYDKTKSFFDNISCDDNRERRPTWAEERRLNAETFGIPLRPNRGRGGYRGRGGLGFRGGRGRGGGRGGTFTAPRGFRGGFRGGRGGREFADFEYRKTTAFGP
substance,measurement,setting,value
"anti-VSV-G horseradish peroxidase (HRP) labeled monoclonal antibody (Clone P5D4, Roche Applied Science)",Signal to Noise,[1],698 and 760
same,"Percent of Control (HRP detection, VSV-G tag)",[2],96.5%

# Reference: patent US8852956
